Our source for the Kd values is paper PMC7293036.

For orientation: Kd means the constant that tells how readily two partners part at equilibrium. A higher Kd goes with a looser complex.

This series concerns eIF4G HEAT1 domain. Kind of series: MST.

5'tiRNAAla had a Kd of 410 nM.
